Assay results from patent US20250381289A1 (Genmab, published 2025).

Legend:
Human EGFR = target: T1, Human EGFR (human, UniProt P00533); assay: ELISA, coated human EGFR, anti-human Fc-HRP
T1 construct: recombinant protein; also called human EGFR recombinant protein

[1] = target: T2, EGFR on EGFR and cMET co-expressed tumor cell lines (UniProt P00533 25-1210, limits assumed); assay: flow cytometry, A549 cells (co-express EGFR and cMET; both arms contribute)
T2 construct: whole, on cells

[2] = target: T3, cMET on EGFR and cMET co-expressed tumor cell lines (UniProt P08581 25-1390, limits assumed); assay: as above
T3 construct: whole, on cells

[3] = target: T2, EGFR on EGFR and cMET co-expressed …; assay: flow cytometry, EBC-1 cells (co-express EGFR and cMET; both arms contribute)
[4] = target: T3, cMET on EGFR and cMET co-expressed …; assay: as above
Target sequence in this assay (P08581 25-1390 limits assumed): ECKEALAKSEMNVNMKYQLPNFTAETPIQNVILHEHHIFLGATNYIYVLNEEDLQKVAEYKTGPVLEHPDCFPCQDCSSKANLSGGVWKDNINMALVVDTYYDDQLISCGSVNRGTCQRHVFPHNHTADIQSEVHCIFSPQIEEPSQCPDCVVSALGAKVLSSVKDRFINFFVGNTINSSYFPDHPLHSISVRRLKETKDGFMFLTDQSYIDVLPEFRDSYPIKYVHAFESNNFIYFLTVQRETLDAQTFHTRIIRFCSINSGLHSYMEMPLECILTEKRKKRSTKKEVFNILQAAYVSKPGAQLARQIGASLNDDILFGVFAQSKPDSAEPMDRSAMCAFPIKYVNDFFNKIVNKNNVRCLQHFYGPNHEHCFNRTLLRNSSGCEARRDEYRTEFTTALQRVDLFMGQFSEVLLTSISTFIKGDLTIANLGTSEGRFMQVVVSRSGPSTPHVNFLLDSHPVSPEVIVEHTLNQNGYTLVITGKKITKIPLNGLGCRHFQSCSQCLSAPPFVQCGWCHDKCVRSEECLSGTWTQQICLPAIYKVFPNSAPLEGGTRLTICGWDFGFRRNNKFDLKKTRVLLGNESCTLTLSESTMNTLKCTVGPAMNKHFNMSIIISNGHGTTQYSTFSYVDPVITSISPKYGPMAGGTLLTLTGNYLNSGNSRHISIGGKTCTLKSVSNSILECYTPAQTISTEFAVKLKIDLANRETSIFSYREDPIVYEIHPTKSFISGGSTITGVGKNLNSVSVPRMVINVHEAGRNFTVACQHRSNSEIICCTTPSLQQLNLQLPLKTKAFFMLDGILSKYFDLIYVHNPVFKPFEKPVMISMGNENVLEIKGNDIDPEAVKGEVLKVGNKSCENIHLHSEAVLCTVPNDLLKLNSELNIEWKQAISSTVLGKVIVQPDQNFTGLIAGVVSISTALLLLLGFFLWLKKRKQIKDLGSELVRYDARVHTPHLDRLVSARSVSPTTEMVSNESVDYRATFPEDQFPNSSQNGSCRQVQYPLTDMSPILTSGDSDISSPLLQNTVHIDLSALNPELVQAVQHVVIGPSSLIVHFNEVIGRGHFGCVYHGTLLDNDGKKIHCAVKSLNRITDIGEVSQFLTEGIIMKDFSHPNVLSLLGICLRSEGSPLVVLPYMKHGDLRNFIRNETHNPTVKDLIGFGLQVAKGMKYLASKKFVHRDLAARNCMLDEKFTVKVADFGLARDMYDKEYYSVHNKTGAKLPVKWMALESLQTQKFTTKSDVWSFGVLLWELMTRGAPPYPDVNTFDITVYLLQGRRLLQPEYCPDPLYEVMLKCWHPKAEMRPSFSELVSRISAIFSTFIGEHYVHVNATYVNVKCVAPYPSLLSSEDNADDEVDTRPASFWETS

[5] = target: T2, EGFR on EGFR and cMET co-expressed …; assay: as above; remark: listed apart in the source
[6] = target: T3, cMET on EGFR and cMET co-expressed …; assay: as above; remark: listed apart in the source
[7] = target: T2, EGFR on EGFR and cMET co-expressed …; assay: flow cytometry, A431 cells (co-express EGFR and cMET; both arms contribute)
[8] = target: T3, cMET on EGFR and cMET co-expressed …; assay: as above
Target sequence in this assay (P08581 25-1390 limits assumed): as above

[9] = target: T2, EGFR on EGFR and cMET co-expressed …; assay: flow cytometry, MKN-45 cells (co-express EGFR and cMET; both arms contribute)
[10] = target: T3, cMET on EGFR and cMET co-expressed …; assay: as above
Target sequence in this assay (P08581 25-1390 limits assumed): as above

[11] = target: T2, EGFR on EGFR and cMET co-expressed …; assay: flow cytometry, EBC-1 cells (co-express EGFR and cMET; both arms contribute); remark: listed apart in the source
[12] = target: T3, cMET on EGFR and cMET co-expressed …; assay: as above; remark: listed apart in the source
[13] = target: T2, EGFR on EGFR and cMET co-expressed …; assay: flow cytometry, SNU-5 cells (co-express EGFR and cMET; both arms contribute)
[14] = target: T3, cMET on EGFR and cMET co-expressed …; assay: as above
Target sequence in this assay (P08581 25-1390 limits assumed): as above

[15] = target: T2, EGFR on EGFR and cMET co-expressed …; assay: flow cytometry, HCC-827 cells (co-express EGFR and cMET; both arms contribute)
[16] = target: T3, cMET on EGFR and cMET co-expressed …; assay: as above
human EGFR-Fc = target: T4, human EGFR-Fc (human, UniProt P00533 25-645); assay: blocking ELISA: coated human EGFR-Fc, antibody titrated, then EGF-His (blocked ligand), anti-His-HRP
T4 construct: not shown: Fc part, not described

[17] = target: T2, EGFR on EGFR and cMET co-expressed …; assay: flow cytometry on EBC-1 cells (co-express EGFR and cMET), PE anti-human Fc; signal of the whole bispecific, not resolved by arm
[18] = target: T2, EGFR on EGFR and cMET co-expressed …; assay: flow cytometry on CAL-27 cells (co-express EGFR and cMET), PE anti-human Fc; signal of the whole bispecific, not resolved by arm
[19] = target: T3, cMET on EGFR and cMET co-expressed …; assay: as above
[20] = target: T2, EGFR on EGFR and cMET co-expressed …; assay: flow cytometry on NCI-H292 cells (co-express EGFR and cMET), PE anti-human Fc; signal of the whole bispecific, not resolved by arm
[21] = target: T3, cMET on EGFR and cMET co-expressed …; assay: as above
Target sequence in this assay (P08581 25-1390 limits assumed): as above

B1: Amivantamab (bispecific antibody, human IgG1, kappa)
heavy 1: not shown
light 1: not shown
heavy 2: not shown
light 2: DIQMTQSPSSVSASVGDRVTITCRASQGISNWLAWFQHKPGKAPKLLIYAASSLLSGVPSRFSGSGSGTDFTLTISSLQPEDFATYYCQQANSFPITFGQGTRLEIKRTVAAPSVFIFPPSDEQLKSGTASVVCLLNNFYPREAKVQWKVDNALQSGNSQESVTEQDSKDSTYSLSSTLTLSKADYEKHKVYACEVTHQGLSSPVTKSFNRGEC
notes: Bispecific positive control
~0.6 nM: EC50 (read off the curve) (Human EGFR)
~0.5 nM: EC50 (read off the curve) [9] | EC50 (read off the curve) [10]
~3 nM: EC50 (read off the curve) [15] | EC50 (read off the curve) [16] | EC50 (read off the curve) [18] | EC50 (read off the curve) [19] | EC50 (read off the curve) [20] | EC50 (read off the curve) [21]
~4 nM: EC50 (read off the curve) [7] | EC50 (read off the curve) [8]
~2 nM: EC50 (read off the curve) [5] | EC50 (read off the curve) [6] | EC50 (read off the curve) [13] | EC50 (read off the curve) [14] | EC50 (read off the curve) [17]
~1 nM: EC50 (read off the curve) [1] | EC50 (read off the curve) [2] | EC50 (read off the curve) [3] | EC50 (read off the curve) [4] | EC50 (read off the curve) [11] | EC50 (read off the curve) [12]
~0.2 nM: IC50 (read off the curve) (human EGFR-Fc)
